We go through five sequences from the Immune Epitope Database (IEDB).

One may read the Kd as the concentration at which binding is half-saturated.

Assay [1] addresses HLA-A*02:50. Briefly: IEDB peptide-MHC binding, purified MHC/competitive/fluorescence; filed as Kd, often an IC50 or EC50 that approximates it; ≥ and ≤ were set here for values at or beyond the usual limits of such assays.
Assay [2] addresses HLA-B*40:01. Briefly: IEDB peptide-MHC binding, purified MHC/direct/fluorescence; filed as Kd, often an IC50 or EC50 that approximates it; ≥ and ≤ were set here for values at or beyond the usual limits of such assays.
In assay [3] the target is HLA-B*08:01. The description is as above.
Assay [4] deals with HLA-B*27:05. Described as above.
The target of assay [5] is HLA-B*07:02. The description is as above. The settings on record: source organism: Serratia marcescens.
Assay [6] concerns the target HLA-B*58:01. Described as above. To be noted: source organism: Serratia marcescens.
Assay [7] concerns the target HLA-A*31:01. Described as above. The settings on record: source organism: Serratia marcescens.
Assay [8] deals with HLA-A*01:01. The assay is described as above. The settings on record: source organism: Serratia marcescens.
Assay [9] concerns the target HLA-A*02:01. The assay is described as above.
Assay [10] concerns the target HLA-A*69:01. Described as above.
The target in assay [11] is HLA-B*15:01. The assay is described as above. To be noted: source organism: Serratia marcescens.
In assay [12] the target is HLA-A*26:01. Described as above. To be noted: source organism: Serratia marcescens.
For assay [13], the target named is HLA-A*03:01. Described as above. The settings on record: source organism: Serratia marcescens.
For assay [14], the target named is HLA-B*27:20. The assay is described as follows: IEDB peptide-MHC binding, purified MHC/competitive/fluorescence; filed as Kd, often an IC50 or EC50 that approximates it; ≥ and ≤ were set here for values at or beyond the usual limits of such assays.
Assay [15] concerns the target HLA-B*45:06. The description is as above.
Assay [16] addresses HLA-B*83:01. The description is as above.
For assay [17], the target named is HLA-B*15:42. The description is as above.
In assay [18] the target is HLA-B*08:02. The assay is described as follows: IEDB peptide-MHC binding, purified MHC/direct/fluorescence; filed as Kd, often an IC50 or EC50 that approximates it; ≥ and ≤ were set here for values at or beyond the usual limits of such assays. To be noted: source organism: Bacillus anthracis str. Sterne.
For assay [19], the target named is HLA-C*15:02. Described as above. The settings on record: source organism: Bacillus anthracis str. A2012.
Assay [20] addresses HLA-C*06:02. The assay is described as above. The settings on record: source organism: Bacillus anthracis str. A2012.
Assay [21] has as its target HLA-C*14:02. The assay is described as above. The settings on record: source organism: Bacillus anthracis str. A2012.
For assay [22], the target named is HLA-B*46:01. Briefly: IEDB peptide-MHC binding, purified MHC/competitive/fluorescence; filed as Kd, often an IC50 or EC50 that approximates it; ≥ and ≤ were set here for values at or beyond the usual limits of such assays. The settings on record: source organism: Salmonella enterica subsp. enterica serovar Typhi.
In assay [23] the target is HLA-A*02:03. The assay is described as above. The settings on record: source organism: Salmonella enterica subsp. enterica serovar Typhi.
Assay [24] has as its target HLA-A*68:02. Described as above. To be noted: source organism: Salmonella enterica subsp. enterica serovar Typhi.
In assay [25] the target is HLA-B*57:01. The description is as above. The settings on record: source organism: Salmonella enterica subsp. enterica serovar Typhi.
Assay [26] addresses HLA-B*18:01. The assay is described as above. The settings on record: source organism: Salmonella enterica subsp. enterica serovar Typhi.
For assay [27], the target named is HLA-B*39:01. Described as above. The settings on record: source organism: Salmonella enterica subsp. enterica serovar Typhi.
For assay [28], the target named is HLA-B*51:01. Described as above. To be noted: source organism: Salmonella enterica subsp. enterica serovar Typhi.
The target in assay [29] is HLA-A*02:19. Described as above. The settings on record: source organism: Salmonella enterica subsp. enterica serovar Typhi.
Assay [30] addresses HLA-B*27:03. The description is as above. To be noted: source organism: Salmonella enterica subsp. enterica serovar Typhi.
The target of assay [31] is HLA-A*02:01. The assay is described as above. The settings on record: source organism: Salmonella enterica subsp. enterica serovar Typhi.
Assay [32] addresses HLA-A*02:16. Described as above. The settings on record: source organism: Salmonella enterica subsp. enterica serovar Typhi.
Assay [33] deals with HLA-A*69:01. Described as above. The settings on record: source organism: Salmonella enterica subsp. enterica serovar Typhi.
Assay [34] has as its target HLA-B*15:01. The description is as above. To be noted: source organism: Salmonella enterica subsp. enterica serovar Typhi.
In assay [35] the target is HLA-A*02:11. The assay is described as above. The settings on record: source organism: Salmonella enterica subsp. enterica serovar Typhi.
Assay [36] has as its target HLA-A*26:01. The assay is described as above. The settings on record: source organism: Salmonella enterica subsp. enterica serovar Typhi.
In assay [37] the target is HLA-A*02:12. The assay is described as above. To be noted: source organism: Salmonella enterica subsp. enterica serovar Typhi.
For assay [38], the target named is HLA-A*03:01. The assay is described as above. The settings on record: source organism: Salmonella enterica subsp. enterica serovar Typhi.
Assay [39] concerns the target HLA-A*02:16. The assay is described as follows: IEDB peptide-MHC binding, purified MHC/direct/fluorescence; filed as Kd, often an IC50 or EC50 that approximates it; ≥ and ≤ were set here for values at or beyond the usual limits of such assays. To be noted: source organism: Vibrio vulnificus CMCP6.
The target of assay [40] is HLA-C*05:01. Described as above. The settings on record: source organism: Vibrio vulnificus YJ016.
The target in assay [41] is HLA-A*02:12. The assay is described as above. To be noted: source organism: Vibrio vulnificus CMCP6.
Where [42] appears, read: source organism: Serratia marcescens.
Setting [43] is: source organism: Bacillus anthracis str. A2012.
Setting [44] is: source organism: Pan troglodytes.
[45] abbreviates: source organism: Vibrio vulnificus.

Take LIPDGDGEV: the Kd in [1] (setting [42]) was 0.0017 µM; in assay [2] (setting [42]), not below 20 µM; in assay [3] (setting [42]) it was not below 20 µM; in [4] (setting [42]), not below 20 µM; in assay [5], not below 20 µM; in assay [6], not below 20 µM. Moreover, the Kd in assay [7], in [8], in [9] (setting [42]), in assay [10] (setting [42]), in assay [11] and in assay [12] was not below 20 µM throughout. The Kd in assay [13] is not below 20 µM.
Take YMKERFTVL: the Kd in [14] (setting [43]) is 0.0226 µM; in assay [15] (setting [43]) it was not below 5 µM; in assay [16] (setting [43]) it was not below 5 µM; in assay [17] (setting [43]), not below 5 µM; in assay [3] (source organism: Bacillus anthracis str. Sterne), 0.015 µM; in assay [18], 0.282 µM. In addition, the Kd in assay [19] was 1.5 µM; in assay [20], 0.149 µM; in assay [21], 0.173 µM.
For the sequence KTVRYWHRF, the Kd in assay [22] is not below 20 µM; in assay [23], not below 20 µM; in assay [24] it was not below 20 µM; in [25], 0.0403 µM; in [26], not below 20 µM; in assay [27], not below 20 µM. In addition, the Kd in assay [28], in assay [29], in [30], in [31], in assay [32] and in assay [33] was not below 20 µM throughout. Besides, the Kd in assay [34], in [35], in [36], in assay [37] and in assay [38] was not below 20 µM in each case.
RRHWGGNVL: the Kd in assay [14] (setting [44]) is 0.0002 µM; in assay [15] (setting [44]) it was not below 5 µM; in [16] (setting [44]), not below 5 µM; in [17] (setting [44]), not below 5 µM; in [2] (source organism: Homo sapiens) it was not below 43 µM; in assay [4] (source organism: Homo sapiens), 2.3 µM.
As to MSDWGHITV, the Kd in assay [1] (source organism: Vibrio vulnificus YJ016) is 0.0098 µM; in assay [9] (setting [45]) it was 0.276 µM; in assay [39], 0.029 µM; in assay [10] (setting [45]), not above 0.001 µM; in assay [40] it was not above 0.001 µM; in assay [41], 0.056 µM.
